This note sets out measurements from US20170202931.

Holding throughout (assay): cell_activity
The test system of data set [1] is ZFN SBS 31523 (mouse albumin intron 1) (synthetic). As to conditions: as pair with 48641; mouse liver in vivo, males 4 months (females 45.69; 1 month 46.67 male, 34.05 female); deep sequencing.
The test system of data set [2] is ZFN pair SBS 47171 / SBS 47931 (human albumin) (synthetic). As to conditions: HepG2 cells with IDS donor, 3 days (62.27 with IDUA donor); MiSeq.
Data set [3] concerns ZFN SBS 48641 (mouse albumin intron 1) (synthetic). Conditions: as pair with 31523; mouse liver in vivo, males 4 months (females 45.69; 1 month 46.67 male, 34.05 female); deep sequencing.

As for “TTTCCTGTAACGATCGGGAACTGGCATC (double strand) [31523 target site]”, the activity in data set [1] worked out at 55.6 % indels.

On to human albumin locus ZFN site, for which the activity in data set [2] was determined as 59.3 % indels.

Substance “CTGAAGGTGGCAATGGTTCCTCTCTGCT (double strand) [48641 target site]” came in with an activity in data set [3] of 55.6 % indels.
